T1: GST-RGL2 (Arabidopsis, UniProt Q8GXW1 1-547)
T1 construct: RGL2 of Arabidopsis; coding region cloned into pGEX-4T-1; source: E. coli Rosetta (DE3), purified (Glutathione Sepharose beads); not shown: GST, N-terminal, kept
T1 sequence (looked up): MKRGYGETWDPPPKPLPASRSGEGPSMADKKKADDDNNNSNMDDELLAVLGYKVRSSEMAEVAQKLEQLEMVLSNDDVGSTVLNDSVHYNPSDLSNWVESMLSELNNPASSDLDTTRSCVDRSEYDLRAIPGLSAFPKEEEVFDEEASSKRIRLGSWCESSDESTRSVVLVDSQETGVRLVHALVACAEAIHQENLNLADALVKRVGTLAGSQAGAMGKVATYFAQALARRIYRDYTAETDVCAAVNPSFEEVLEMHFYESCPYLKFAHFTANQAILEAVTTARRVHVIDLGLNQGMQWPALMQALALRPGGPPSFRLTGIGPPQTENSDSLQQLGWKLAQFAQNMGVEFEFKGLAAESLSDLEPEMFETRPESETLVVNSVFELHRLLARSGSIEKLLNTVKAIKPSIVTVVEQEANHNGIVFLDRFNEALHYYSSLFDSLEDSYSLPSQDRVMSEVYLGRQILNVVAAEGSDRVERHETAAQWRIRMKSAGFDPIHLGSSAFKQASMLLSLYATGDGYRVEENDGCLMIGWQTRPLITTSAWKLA

B1: His-NF-YC9 (natural protein, Arabidopsis, UniProt Q8L4B2 1-231, looked up)
chain: MDQQDHGQSGAMNYGTNPYQTNPMSTTAATVAGGAAQPGQLAFHQIHQQQQQQQLAQQLQAFWENQFKEIEKTTDFKNHSLPLARIKKIMKADEDVRMISAEAPVVFARACEMFILELTLRSWNHTEENKRRTLQKNDIAAAVTRTDIFDFLVDIVPREDLRDEVLGSIPRGTVPEAAAAGYPYGYLPAGTAPIGNPGMVMGNPGGAYPPNPYMGQPMWQQQAPDQPDQEN
notes: NF-YC9 of Arabidopsis; coding region cloned into pQE30; source: E. coli Rosetta (DE3), purified (Ni-NTA agarose); not shown: His, N-terminal, kept
B2: His-NF-YC4 (natural protein, Arabidopsis, UniProt Q9FMV5 1-250, looked up)
chain: MDNNNNNNNQQPPPTSVYPPGSAVTTVIPPPPSGSASIVTGGGATYHHLLQQQQQQLQMFWTYQRQEIEQVNDFKNHQLPLARIKKIMKADEDVRMISAEAPILFAKACELFILELTIRSWLHAEENKRRTLQKNDIAAAITRTDIFDFLVDIVPREEIKEEEDAASALGGGGMVAPAASGVPYYYPPMGQPAVPGGMMIGRPAMDPSGVYAQPPSQAWQSVWQNSAGGGDDVSYGSGGSSGHGNLDSQG
notes: NF-YC4 of Arabidopsis; coding region cloned into pQE30; source: E. coli Rosetta (DE3), purified (Ni-NTA agarose); not shown: His, N-terminal, kept
B3: His-NF-YC3 (natural protein, Arabidopsis, UniProt Q9ZVL3 1-217, looked up)
chain: MDQQGQSSAMNYGSNPYQTNAMTTTPTGSDHPAYHQIHQQQQQQLTQQLQSFWETQFKEIEKTTDFKNHSLPLARIKKIMKADEDVRMISAEAPVVFARACEMFILELTLRSWNHTEENKRRTLQKNDIAAAVTRTDIFDFLVDIVPREDLRDEVLGGVGAEAATAAGYPYGYLPPGTAPIGNPGMVMGNPGAYPPNPYMGQPMWQQPGPEQQDPDN
notes: NF-YC3 of Arabidopsis; coding region cloned into pQE30; source: E. coli Rosetta (DE3), purified (Ni-NTA agarose); not shown: His, N-terminal, kept

In the assay the target is T1, GST-RGL2. The experiment in a line: pull-down; 2 ug of His-NF-YCs incubated with GST or GST-RGL2 immobilised on Glutathione Sepharose beads; 50 mM Tris-HCl pH 8.0, 100 mM NaCl, 1 mM EDTA; 4 °C, 2 h; blots with anti-His and anti-GST. To be noted: both partners purified.
With B1, the binding result is given as “binds”. With B2, the binding result is listed as “binds”. The value for B3 was “binds”.
